From patent publication US8367390B2, “Galactanase variants” (Novozymes A/S, priority 2002, dated 2013) come the findings set out here.

Data set [1] can be described thus: Activity on galactan, products by HPAEC-PAD. The class given is biochemical. The following applies: 30° C.; BLGAL pH 6.5, AAGAL pH 4.0. The method, then:
Lupin galactan (Megazyme) was incubated with BLGAL (0.1-10 micrograms/ml) at pH 6.5 (50 mM MES, 1 mM CaCl2) and with AAGAL (0.1-10 μg/ml) at pH 4.0 (50 mM sodium acetate, 1 mM CaCl2) at 30° C. Samples were withdrawn after 45 min to 24 hours and enzyme inactivated by heating to 95° C. for 10 min. Reaction products were analyzed using HPAEC-PAD on a Dionex chromatographic system using a CarboPac PA-100 column and a linear gradient 0 to 0.3 M sodium acetate in 0.15 M NaOH. Purified galacto-oligosaccharides were used to identify products.

Data set [2] in a line: Activity on galactobiose (Gal2). The class given is biochemical. The following applies: in 24 hours; buffer, pH and temperature per enzyme. The method, then: (§1) The activity on the galacto-oligosaccharide substrates prepared as described above and on the commercially available galactobiose (Gal2, Megazyme) was studied for the four purified galactanases HIGAL, MTGAL, AAGAL and BLGAL. The buffers and temperatures used were: 25 mM sodium acetate, 0.5 mM CaCl2, 0.005% Triton X-100, pH 6.5 at 37° C. for HIGAL and MTGAL, 50 mM sodium acetate, 1 mM CaCl2, pH 4 at 30° C. for AAGAL and 50 mM Mes, 1 mM CaCl2, pH 6.5 at 30° C. for BLGAL. Enzyme concentrations used were 0.8 μg/ml for HIGAL, 0.2 microgram/ml for MTGAL, and 10 micrograms/ml for AAGAL and BLGAL. With HIGAL and MTGAL substrate concentrations were all 0.25 mg/ml, whereas 0.34 mg/ml Gal2, 0.050 mg/ml Gal3 and 0.067 mg/ml Gal4 were used for AAGAL and BLGAL. Enzyme activity in samples withdrawn after various incubation times was inactivated by heating to 95° C. for 10 min. Compositions of reaction products were analysed using HPAE-PAD (Dionex) applying a PA-100 column and a linear gradient of sodium acetate (0-0.18 M) in 0.15 M NaOH. Response factors of the individual carbohydrates were estimated from reference runs with MeGal3, MeGal4, Gal, Gal2, Gal3 and Gal4. Selected results are shown in Tables 2-8 below (the figures indicating weight percentage of glactooligosaccharides).

Data set [3] is described as follows: Degradation of MeGal4, products by HPAE-PAD. The following applies: in words; buffer, pH and temperature per enzyme. The class given is biochemical. The method, then: as §1
Data set [4] in a line: Activity on galactotriose (Gal3). The class given is biochemical. The note with it: up to 24 hours; buffer, pH and temperature per enzyme. The procedure: as §1
The format of data set [5] is biochemical. The method, then:
as §1

A short description of data set [6]: pH profile of galactanase activity on lupin AZCL-galactan. The following applies: 15 min at 37° C., A590, unit assumed. The class given is biochemical. The method, then: The pH profiles of the purified variants described above were established as follows: Galactanase activity at various pH was measured by mixing 500 μl 4 mg/ml lupin AZCL-galactan (Megazyme, Australia) in water with 500 μl buffer (50 mM sodium acetate, 50 mM potassium dihydrogenphosphate, 50 mM boric acid, 1 mM CaCl2, 0.01% Triton X-100 adjusted to pH 2.5, 3.5, 4.5, 5.5, 6.5, 7.5, 8.5 or 9.5 with HCl/NaOH) and 25 μl purified enzyme diluted to about 0.5-2 μg/ml in water. The mixture was incubated 15 min at 37° C., insoluble material was removed by centrifugation, and absorbance in the supernatant was measured at 590 nm.

B1: BLGAL: GH Family 53 galactanase from Bacillus licheniformis, SEQ ID NO: 4 (wild type parent) (protein, listed as Bacillus licheniformis)
chain: AHRDSGTAKSGLYVEKVSGLRKDFIKGVDVSSIIALEESGVAFYNESGKKQDIFNTLKEAGVNYVRVRIWNDPYDANGNGYGGGNNDLEKAIQIGKRANANGMKLLADFHYSDFWADPAKQKAPKAWANLNFEDKKTALYQYTKQSLKAMKAAGIDIGMVQVGNETNGGLAGETDWAKMSQLFNAGSQAVRETDSNILVALHFTNPETSGRYAWIAETLHRHHVDYDVFASSYYPFWHGTLKNLTSVLTSVADTYGKKVMVAETSYTYTAEDGDGHGNTAPKNGQTLNNPVTVQGQANAVRDVIQAVSDVGEAGIGVFYWEPAWIPVGPAHRLEKNKALWETYGSGWATSYAAEYDPEDAGKWFGGSAVDNQALFDFKGRPLPSLHVFQYVDTGTPFKN
For the molecule B1, the “Initial products from lupin galactan” value in data set [1] is “initial main product is galactotetraose with both smaller and larger oligomers also present”. Also, the “Activity on Gal2” value in data set [2] is recorded as “Neither of the enzymes HIGAL, MTGAL, AAGAL or BLGAL had any detectable activity”. Also, the “Products from MeGal4” value in data set [3] is “MeGal and Gal3”. Further, the “Activity on Gal3, products” value in data set [4] is “no visible activity on Gal3 after 24 hours”. Besides, the “Products of Gal4 (galactotetraose) degradation” value in data set [5] was “degrades galactotetraose mainly to galactose and galactotriose”.

B2: AAGAL: GH Family 53 galactanase from Aspergillus aculeatus, SEQ ID NO: 3 (wild type parent) (protein, listed as Aspergillus aculeatus)
chain: ALTYRGADISSLLLLEDEGYSYKNLNGQTQALETILADAGINSIRQRVWVNPSDGSYDLDYNLELAKRVKAAGMSLYLDLHLSDTWADPSDQTTPSGWSTTDLGTLKWQLYNYTLEVCNTFAENDIDIEIISIGNEIRAGLLWPLGETSSYSNIGALLHSGAWGVKDSNLATTPKIMIHLDDGWSWDQQNYFYETVLATGELLSTDFDYFGVSYYPFYSASATLASLKTSLANLQSTYDKPVVVVETNWPVSCPNPAYAFPSDLSSIPFSVAGQQEFLEKLAAVVEATTDGLGVYYWEPAWIGNAGLGSSCADNLMVDYTTDEVYESIETLGEL
modifications: mat_peptide (1)..()
As for B2, the “Initial products from lupin galactan” value in data set [1] is “initially produces a more homogeneous mixture of galactooligomers”. For the same molecule, the “Activity on Gal2” value in data set [2] is on record as “Neither of the enzymes HIGAL, MTGAL, AAGAL or BLGAL had any detectable activity”. This molecule displayed a Galactanase activity at pH 2.5 in data set [6] (pH 2.5) of 73%. Also, the Galactanase activity at pH 3.5 in data set [6] (pH 3.5) worked out at 100%. The Galactanase activity at pH 4.5 in data set [6] (pH 4.5) came to 83%. The Galactanase activity at pH 5.5 in data set [6] (pH 5.5) came to 47%. The molecule also showed a Galactanase activity at pH 6.5 in data set [6] (pH 6.5) of 32%. The molecule further displayed a Galactanase activity at pH 7.5 in data set [6] (pH 7.5) of 0%. Moreover, the Galactanase activity at pH 8.5 in data set [6] (pH 8.5) turned out to be 2%. This molecule came in with a Galactanase activity at pH 9.5 in data set [6] (pH 9.5) of 0%. The “Activity on Gal3, products” value in data set [4] was “degraded Gal3 to Gal2 and Gal”. The “Products of Gal4 (galactotetraose) degradation” value in data set [5] was “about equimolar amounts of galactose, galactobiose and galactotriose”.
